Experimental findings from US20140010815A1 (JOSAI UNIVERSITY, published 2014) are described below.

The assay addresses T1, conjugate of a peptide consisting of an amino acid sequence represented by SEQ ID NO: 1 and KLH (also: conjugated to KLH with glutaraldehyde, attachment site not given here).
T1 construct: Synthetic peptide (Fmoc solid phase) chemically conjugated to KLH; used as the immunogen and as the coating antigen in the antibody titer ELISA; also called antigenic substance; not shown: KLH carrier protein (SIGMA), coupled by glutaraldehyde
T1 peptide: SSVLYGGPPSAA
The assay is described as follows: antibody titer ELISA, plate coated with the peptide-KLH conjugate, hybridoma culture supernatant, fluorescence read-out. The method, then: A buffer solution containing the above-mentioned antigenic substance (5 mg) (Baicarbonate buffer: 100 mM NaHCO₃—NaOH, pH 9.2 to 9.5, the concentration of the peptide: 1 μg/mL) was added to a 96 well flat bottom plate in an amount of 50 μL per well, and allowed to stand for coating at room temperature for 2 hours. The plate was washed 3 times with wash buffer (PBST), and then blocking buffer (3% skim milk 1% BSA, PBS) was added in an amount of 200 to 250 μL/well to react at 4° C. for one full day, and then washed 3 times. Then the culture supernatant of hybridoma was added in an amount of 100 μL/well, which was allowed to react at 37° C. for 4 hours or at 4° C. for one full day. After the plate was washed 3 times, biotin-labeled anti-mouse IgG (SIGMA) diluted 10000 times with dilution buffer (10 mM Tris-HCl (pH 8.0), 0.9% (W/V) NaCl, 0.05% (W/V) Tween 20) was added in an amount of 50 μL/well, which was allowed to react at room temperature for 2 hours. […] Then washing was performed 6 times, and fluorescent substrate buffer (Attophos substrate buffer, Roche Diagnostics K.K.) was added in an amount of 50 μL/well, and the plate was shaded to allow fluorescence to develop. Fluorescence intensity was measured in CytoFluorII (PerSeptive Biosystems).

No end group written: not given here.

B1: monoclonal antibody (SSVmAb) of Example 1, produced by Mouse-Mouse hybridoma SSV-C 93-3 (antibody, IgG1, V domains shown)
VH: EIQLQQSGAELVKPGASVKISCKASGYSFTGYNMNWVKQSHGKSLEWIGNINPYYGSTSYNQKFKGKATLTVDKSSSTAYMQLNSLTSEDSAVYYCARSPYYSNYWRYFDYWGQGTTLTVSS
VL: QIVLSQSPAILSASPGEKVTMTCRASSSVSYMHWYQQKPGSSPKPWIYATSNLASGVPARFSGSGSGTSYSLTISRVEAEDAATYYCQQWSSNPWTFGGGTKLEIK
notes: Mouse monoclonal antibody purified from hybridoma culture supernatant; light chain amplified with a mouse kappa constant region primer
For B1, the binding result is on record as “binds”.
